The values that follow come from patent publication US20220162261A1 (published 2022).

For orientation: IC50 means the midpoint of a concentration-inhibition curve. A lower IC50 goes with greater potency in that assay.

For test [1], the target named is T1, human α4β7 integrin on cells (human, UniProt P13612 34-1032; P26010 20-798).
T1 construct: whole, on cells; also called α4β7 cell (Hu); RPMI8866 cells
Description: RPMI8866 cell adhesion to MAdCAM-1.

The target in test [2] is T1, human α4β7 integrin on cells. Description: PBMC memory T cell adhesion.
Test [3] has as its target T2, rh integrin α4β7 (R&D Systems #5397-A30) (human, UniProt P13612 34-970; P26010 20-723).
T2 construct: bought; coated on a nickel coated plate; also called immobilized α4β7; immobilized α4β7 integrin protein
Nature of the test: competition ELISA vs MAdCAM-1.

Test [4] has as its target T3, mouse α4β7 integrin on TK1 cells (mouse, UniProt Q00651 41-1039; P26011 20-806).
T3 construct: whole, on cells; also called α4β7 cell (Mu); Cell Adhesion α4β7 Mouse
Description: TK1 cell adhesion to MAdCAM-1.

Test [5] concerns the target T4, α4β1 (R&D Systems #5668-A4) (UniProt P13612 34-970; P05556 21-728, limits assumed).
T4 construct: bought; also called soluble α4β1
Nature of the test: competition ELISA vs VCAM-1. (In general: ELISA stands for enzyme-linked immunosorbent assay.)

Numbered stars: 1 amine (or outer) side, 2 acyl side, 3 side chain; on linkers, the order of the positions; unused ones are H or OH. Bridge positions count the residues as written; N and C are the ends. Square brackets hold non-standard residues; d marks the D form. Ends that are not written are not given here. Glu(OMe) = L-glutamic acid gamma-methyl ester, COC(=O)CC[C@H](N[*:1])C(=O)[*:2]; Phe(4-COOH) = N[C@@H](Cc1ccc(C(=O)O)cc1)C(=O)O; Phe(4-tBu) = CC(C)(C)c1ccc(C[C@H](N)C(=O)O)cc1; NMeR = CN[C@@H](CCCNC(=N)N)C(=O)O; β3hE = N[C@@H](CCC(=O)O)CC(=O)O; NMeK = CN[C@@H](CCCCN)C(=O)O; Pen = CC(C)(S)[C@H](N)C(=O)O; βAla = NCCC(=O)O

T3 sequence (Q00651 41-1039, chain 1 of 2): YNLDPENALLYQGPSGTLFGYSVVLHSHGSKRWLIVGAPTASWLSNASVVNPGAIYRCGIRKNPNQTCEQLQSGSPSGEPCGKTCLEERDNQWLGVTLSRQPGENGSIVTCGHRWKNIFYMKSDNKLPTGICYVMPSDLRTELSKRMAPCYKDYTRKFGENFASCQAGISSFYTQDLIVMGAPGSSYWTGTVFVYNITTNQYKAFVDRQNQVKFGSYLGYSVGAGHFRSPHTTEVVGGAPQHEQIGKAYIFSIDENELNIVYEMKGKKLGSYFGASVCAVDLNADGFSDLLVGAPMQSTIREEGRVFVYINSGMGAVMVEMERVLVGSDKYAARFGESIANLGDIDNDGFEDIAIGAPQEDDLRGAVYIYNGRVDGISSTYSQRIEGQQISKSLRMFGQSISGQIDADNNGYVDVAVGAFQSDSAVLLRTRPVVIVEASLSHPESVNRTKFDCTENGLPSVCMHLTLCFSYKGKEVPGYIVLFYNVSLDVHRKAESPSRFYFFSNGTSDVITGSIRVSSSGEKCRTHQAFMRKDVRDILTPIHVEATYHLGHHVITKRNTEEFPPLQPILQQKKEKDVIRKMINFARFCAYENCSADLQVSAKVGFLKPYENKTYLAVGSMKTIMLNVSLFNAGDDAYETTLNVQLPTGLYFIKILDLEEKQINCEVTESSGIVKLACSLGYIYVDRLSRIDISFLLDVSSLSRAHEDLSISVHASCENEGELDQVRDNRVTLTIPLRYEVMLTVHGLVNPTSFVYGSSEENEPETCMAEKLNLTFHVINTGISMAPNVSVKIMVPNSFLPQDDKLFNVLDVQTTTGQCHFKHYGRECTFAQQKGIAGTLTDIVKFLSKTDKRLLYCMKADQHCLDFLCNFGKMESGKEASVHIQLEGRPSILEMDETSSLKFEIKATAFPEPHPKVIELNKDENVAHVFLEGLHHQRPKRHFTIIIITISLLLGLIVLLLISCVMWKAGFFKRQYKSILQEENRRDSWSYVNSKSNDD
T3 sequence (P26011 20-806, chain 2 of 2): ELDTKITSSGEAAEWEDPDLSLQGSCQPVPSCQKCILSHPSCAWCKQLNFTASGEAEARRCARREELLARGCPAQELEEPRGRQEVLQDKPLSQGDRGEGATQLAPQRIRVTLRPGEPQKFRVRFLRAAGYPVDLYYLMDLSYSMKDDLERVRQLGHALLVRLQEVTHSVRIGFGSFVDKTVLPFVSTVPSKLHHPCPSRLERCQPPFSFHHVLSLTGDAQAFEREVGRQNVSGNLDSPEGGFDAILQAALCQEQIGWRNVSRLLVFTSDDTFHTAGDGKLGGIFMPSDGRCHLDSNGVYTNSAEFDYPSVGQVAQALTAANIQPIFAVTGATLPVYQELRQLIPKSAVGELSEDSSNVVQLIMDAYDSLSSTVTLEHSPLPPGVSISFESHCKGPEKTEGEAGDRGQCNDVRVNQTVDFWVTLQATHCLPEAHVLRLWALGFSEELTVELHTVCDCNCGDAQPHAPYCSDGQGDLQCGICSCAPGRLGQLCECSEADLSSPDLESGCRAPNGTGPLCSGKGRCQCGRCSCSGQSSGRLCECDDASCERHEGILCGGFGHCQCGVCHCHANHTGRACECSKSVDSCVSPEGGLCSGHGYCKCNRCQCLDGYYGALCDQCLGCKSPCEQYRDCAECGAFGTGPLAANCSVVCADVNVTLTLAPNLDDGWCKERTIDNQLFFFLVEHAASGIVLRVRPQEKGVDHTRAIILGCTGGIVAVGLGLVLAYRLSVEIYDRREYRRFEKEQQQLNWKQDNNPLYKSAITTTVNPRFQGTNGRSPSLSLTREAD

B1: SEQ ID NO: 166 (peptide)
peptide: Ac-[Pen][NMeR]SDTL[Pen][Phe(4-tBu)][β3hE][dK]-NH2
modifications: disulfide 1-7; not fully specified (residue 10); printed as (Ac Pen N-Me-R S D T L Pen F(4-tBu) b-H-E k NH2)2 IDA, disulfide Pen-Pen; also: homodimer (…)2 IDA via D-Lys10 NZ
For the molecule B1, the IC50 in test [1] and in test [2] was not above 10 nM throughout.

B2: SEQ ID NO: 133 (peptide)
peptide: Ac-[Pen][NMeR]SDTL[Pen][Phe(4-tBu)]E[NMeK]-NH2
modifications: disulfide 1-7; not fully specified (residue 10); printed as (Ac Pen N-Me-R S D T L Pen F(4tBu) E N-Me-K NH2)2 DIG, disulfide Pen-Pen; also: homodimer, two subunits joined by DIG linker
B2: the IC50 in test [3] and in test [2] was not above 10 nM throughout.

B3: SEQ ID NO: 165 (peptide)
peptide: Ac-[Pen][NMeR]SDTL[Pen][Phe(4-tBu)][β3hE]-NH2
modifications: disulfide 1-7
SMILES: CC(=O)N[C@@H]1C(=O)N(C)[C@@H](CCCNC(=N)N)C(=O)N[C@@H](CO)C(=O)N[C@@H](CC(=O)O)C(=O)N[C@@H]([C@@H](C)O)C(=O)N[C@@H](CC(C)C)C(=O)N[C@H](C(=O)N[C@@H](Cc2ccc(C(C)(C)C)cc2)C(=O)N[C@@H](CCC(=O)O)CC(N)=O)C(C)(C)SSC1(C)C
Turning to B3, the figures for the IC50 in test [1] and in test [2] were more than 10 nM and more than 100 nM, respectively.

B4: SEQ ID NO: 147 (peptide)
peptide: Ac-[Pen][NMeR]SDTL[Pen][Phe(4-COOH)]E[NMeK]-NH2
modifications: disulfide 1-7; not fully specified (residue 10); printed as (Ac Pen N-Me-R S D T L Pen F(4-COOH) E N-Me-K NH2)2 DIG, disulfide Pen-Pen; also: homodimer (…)2 DIG via Lys10 NZ
On to B4, for which the IC50 in test [3], in test [4], in test [1] and in test [2] was not above 10 nM throughout.

B5: SEQ ID NO: 149 (peptide)
peptide: Ac-[Pen][NMeR]SDTL[Pen][Phe(4-tBu)][β3hE][NMeK]-NH2
modifications: disulfide 1-7; not fully specified (residue 10); printed as (Ac Pen N-Me-R S D T L Pen F(4-tBu) b-H-E N-Me-K NH2)2 DIG, disulfide Pen-Pen; also: homodimer (…)2 DIG via Lys10 NZ
In the case of B5, the IC50 in test [3] was not above 10 nM; in test [4] it was not above 10 nM; in test [5], more than 500 nM; in test [1], not above 10 nM; in test [2], not above 10 nM.

B6: SEQ ID NO: 148 (peptide)
peptide: Ac-[Pen][NMeR]SDTL[Pen][Phe(4-COOH)][β3hE][NMeK]-NH2
modifications: disulfide 1-7; not fully specified (residue 10); printed as (Ac Pen N-Me-R S D T L Pen F(4-COOH) b-H-E N-Me-K NH2)2 DIG, disulfide Pen-Pen; also: homodimer (…)2 DIG via Lys10 NZ
Consider B6, for which the IC50 in test [3], in test [4] and in test [1] was not above 10 nM in each case.

B7: SEQ ID NO: 153 (peptide)
peptide: Ac-[Pen][NMeR]SDTL[Pen][Phe(4-tBu)][β3hE][dK]-NH2
modifications: disulfide 1-7
SMILES: CC(=O)N[C@@H]1C(=O)N(C)[C@@H](CCCNC(=N)N)C(=O)N[C@@H](CO)C(=O)N[C@@H](CC(=O)O)C(=O)N[C@@H]([C@@H](C)O)C(=O)N[C@@H](CC(C)C)C(=O)N[C@H](C(=O)N[C@@H](Cc2ccc(C(C)(C)C)cc2)C(=O)N[C@@H](CCC(=O)O)CC(=O)N[C@H](CCCCN)C(N)=O)C(C)(C)SSC1(C)C
B7: the IC50 is more than 10 nM in test [3], more than 10 nM in test [4], more than 1000 nM in test [5] and more than 10 nM in test [1].

B8: SEQ ID NO: 146 (peptide)
peptide: XRSDTLXWE
modifications: Ac Pen N-Me-R S D T L Pen W b-H-E OH; disulfide Pen-Pen
B8: the IC50 in test [4] was more than 50 nM; in test [5] it was more than 1000 nM; in test [1], more than 50 nM.

B9: SEQ ID NO: 152 (peptide)
peptide: Ac-[Pen][NMeR]SDTL[Pen][Phe(4-tBu)][β3hE]-OH
modifications: disulfide 1-7
SMILES: CC(=O)N[C@@H]1C(=O)N(C)[C@@H](CCCNC(=N)N)C(=O)N[C@@H](CO)C(=O)N[C@@H](CC(=O)O)C(=O)N[C@@H]([C@@H](C)O)C(=O)N[C@@H](CC(C)C)C(=O)N[C@H](C(=O)N[C@@H](Cc2ccc(C(C)(C)C)cc2)C(=O)N[C@@H](CCC(=O)O)CC(=O)O)C(C)(C)SSC1(C)C
Consider B9, for which the IC50 is not above 10 nM in test [3]; not above 10 nM in test [4]; more than 100 nM in test [5]; not above 10 nM in test [1]; more than 25 nM in test [2].

B10: SEQ ID NO: 167 (peptide)
peptide: Ac-[Pen][NMeR]SDTL[Pen][Phe(4-tBu)][β3hE][dK]-NH2
modifications: disulfide 1-7; not fully specified (residue 10); printed as (Ac Pen N-Me-R S D T L Pen F(4-tBu) b-H-E k NH2)2 IDA PEG4 Biotin, disulfide Pen-Pen; also: homodimer (…)2 IDA PEG4 Biotin via D-Lys10 NZ
On to B10, for which the IC50 in test [1] and in test [2] was not above 10 nM each time.

B11: SEQ ID NO: 130 (peptide)
peptide: Ac-[Pen][NMeR]SDTL[Pen][Phe(4-COOH)][β3hE][dK]-NH2
modifications: disulfide 1-7; not fully specified (residue 10); printed as (Ac Pen N-Me-R S D T L Pen F(4-COOH) b-H-E k NH2)2 DIG, disulfide Pen-Pen; also: homodimer, two subunits joined by DIG linker
As to B11, the IC50 in test [3], in test [1] and in test [2] was not above 10 nM throughout.

B12: SEQ ID NO: 141 (peptide)
peptide: Ac-[Pen][NMeR]SDTL[Pen]W[β3hE][NMeK]-NH2
modifications: disulfide 1-7; not fully specified (residue 10); printed as (Ac Pen N-Me-R S D T L Pen W b-H-E N-Me-K NH2)2 DIG, disulfide Pen-Pen; also: homodimer (…)2 DIG via Lys10 NZ
For the molecule B12, the IC50 in test [3] is not above 10 nM; in test [5], more than 500 nM; in test [1], not above 10 nM.

B13: SEQ ID NO: 54 (peptide)
peptide: [βAla][Pen][NMeR]SDTL[Pen]WE-NH2
modifications: disulfide 2-8; not fully specified (N-terminus); printed as DIG (NH2 Beta-Ala Pen N-Me-R S D T L Pen W E NH2)2, disulfide Pen-Pen; also: homodimer: two subunits linked by DIG via N-terminal Beta-Ala amine
notes: linker printed at the N-terminus
Take B13: the results for the IC50 in test [5] and in test [1] were more than 100 nM and more than 25 nM, respectively.

B14: SEQ ID NO: 168 (peptide)
peptide: Ac-[Pen][NMeR]SDTL[Pen][Phe(4-tBu)][β3hE][dK]-OH
modifications: disulfide 1-7; not fully specified (residue 10); printed as (Ac Pen N-Me-R S D T L Pen F(4tBu) b-H-E k OH)2 DIG, disulfide Pen-Pen; also: homodimer (…)2 DIG via D-Lys10 NZ
For the molecule B14, the IC50 in test [1] and in test [2] was not above 10 nM throughout.

B15: SEQ ID NO: 22 (peptide)
peptide: Ac-[Pen][NMeR]SDTL[Pen]YE[dK]-NH2
modifications: disulfide 1-7; not fully specified (residue 10); printed as (Ac Pen N-Me-R S D T L Pen Y E k NH2)2 DIG, disulfide Pen-Pen; also: dimer, two subunits joined by DIG linker
As for B15, the results for the IC50 in test [3], in test [5] and in test [1] were not above 10 nM, more than 100 nM and not above 10 nM, respectively.

B16: SEQ ID NO: 86 (peptide)
peptide: Ac-[Pen][NMeR]SDTL[Pen]W[Glu(OMe)][dK]-NH2
modifications: disulfide 1-7; not fully specified (residue 10); printed as (Ac Pen N-Me-R S D T L Pen W E(OMe) k NH2)2 DIG, disulfide Pen-Pen; also: homodimer: two subunits linked by DIG via D-Lys10 side chain
For the molecule B16, the IC50 in test [4] and in test [1] was not above 10 nM throughout.

B17: SEQ ID NO: 129 (peptide)
peptide: Ac-[Pen][NMeR]SDTL[Pen][Phe(4-COOH)]E[dK]-NH2
modifications: disulfide 1-7; not fully specified (residue 10); printed as (Ac Pen N-Me-R S D T L Pen F(4-COOH) E k NH2)2 DIG, disulfide Pen-Pen; also: homodimer: two subunits joined by DIG linker
B17: the IC50 in test [3], in test [1] and in test [2] was not above 10 nM in each case.
